According to patent publication US6114132A, “Prosphatase binding assay” (Merck Frosst Canada & Co., priority 1997, dated 2000):
Numbering of substitutions follows the chain as printed. Square brackets hold non-standard residues; d marks the D form. Peptide text beside a SMILES is read from it. * marks the point of attachment. F2Pmp = N[C@@H](Cc1ccc(C(F)(F)P(=O)(O)O)cc1)C(=O)O; Bz = O=C(c1ccccc1)*

Experiments:
[1] = biological target: T1, human recombinant GST-PTP1B, non-mutated (Cys215) (Homo sapiens, UniProt P18031); assay: GST-PTP1B SPA binding assay with non-mutated (Cys215) enzyme; conditions: read-out: % inhibition, Non-Mutated
T1 construct: Human recombinant PTP1B, containing amino acids 1-320; made in house; host or cells: E. coli
T1 sequence (P18031 1-320): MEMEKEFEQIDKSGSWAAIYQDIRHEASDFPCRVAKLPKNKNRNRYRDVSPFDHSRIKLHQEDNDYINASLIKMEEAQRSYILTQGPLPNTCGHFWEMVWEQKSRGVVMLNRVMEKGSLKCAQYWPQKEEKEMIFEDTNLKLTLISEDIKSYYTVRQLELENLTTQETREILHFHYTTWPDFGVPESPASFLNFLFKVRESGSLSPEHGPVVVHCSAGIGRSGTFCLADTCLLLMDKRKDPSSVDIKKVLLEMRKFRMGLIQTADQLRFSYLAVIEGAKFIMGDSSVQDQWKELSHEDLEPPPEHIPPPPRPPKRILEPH
Method: (§1) ID No. 7) contains active site serine(215).
(§2) IC50 Binding Assay Protocol
(§3) To each well is added the following solutions @ 25° C. in the following chronological order:
(§4) 1. 110 μl of assay buffer.
(§5) 3. 10 μl. of testing compound in DMSO at 10 different concentrations in serial dilution (final DMSO, about 5% v/v) in duplicate @ 25° C.
(§6) 4. 10 μl. of 3.75 μg/ml purified human recombinant GST-PTP1B in enzyme dilution buffer.
(§7) 5. The plate is shaken for 2 minutes.
(§8) 6. 10 μl. of 0.3 μg/ml anti-glutathione S-transferase (anti-GST) rabbit IgG (Molecular Probes) diluted in antibody dilution buffer @ 25° C.
(§9) 7. The plate is shaken for 2 minutes.
(§10) 8. 50 μl. of protein A-PVT SPA beads (Amersham) @ 25° C.
(§11) 9. The plate is shaken for 5 minutes. The binding signal is quantified on a Microbeta 96-well plate counter.
(§12) 10. The non-specific signal is defined as the enzyme-ligand binding in the absence of anti-GST antibody.
(§13) 11. 100% binding activity is defined as the enzyme-ligand binding in the presence of anti-GST antibody, but in the absence of the testing ligands with the non-specific binding subtracted.
(§14) 12. Percentage of inhibition is calculated accordingly.
(§15) 13. IC50 value is approximated from the non-linear regression fit with the 4-parameter/multiple sites equation (described in: "Robust Statistics", New York, Wiley, by P. J. Huber (1981) and reported in nM units.

[2] = biological target: T2, human recombinant GST-PTP1B, mutated (Ser215) (Homo sapiens, UniProt P18031, C215S); assay: GST-PTP1B SPA binding assay with mutated enzyme (Ser215)
T2 construct: Human recombinant PTP1B, containing amino acids 1-320; made in house; host or cells: bacteria (E. coli DH5alpha named for the transformation)
T2 sequence (P18031 1-320 C215S): T1 sequence (P18031 1-320) with C215S
Method: as §1, §2, §3, §4, §5, §6, §7, §8, §9, §10, §11, §12, §13, §14, §15

[3] = biological target: GST-PTP1B, mutated (Ser215): GST-PTP-1B Cys215Ser mutant, human PTP1B amino acids 1-320 fused to GST (human); assay: SPA competition binding assay against tritiated BzN-EJJ-CONH2, GST-PTP1B mutated (Ser215)
[4] = biological target: GST-PTP1B, non-mutated (Cys215): human recombinant PTP1B amino acids 1-320 fused to GST enzyme (glutathione S-transferase) (human); assay: SPA competition binding assay against tritiated BzN-EJJ-CONH2, GST-PTP1B non-mutated (Cys215)
[5] = system: PTP1B; assay: inhibition of PTP1B; assay type: biochemical; conditions: type of constant not stated
[6] = phosphatase activity of expressed PTP-1B constructs; assay type: biochemical; conditions: expressed (E. coli for GST-PTP-1B) protein
Description: The full length human PTP-1B cDNA sequence (published in J. Chernoff et al., PNAS, USA, supra) cloned into a PET vector was obtained from Dr. Raymond Erickson (Harvard University). The PTP-1B CDNA sequence encoding amino acids 1-320 (Seq. ID No. 1) was amplified by PCR using the full length sequence as template. […] The amplified fragment was cloned into pCR2 (Invitrogen) and sequenced to insure that no sequence errors had been introduced by Taq polymerase during the amplification. This sequence was released from pCR2 by a Bam HI/Eco RI digest and the PTP-1B cDNA fragment ligated into the GST fusion vector pGEX-2T (Pharmacia) that had been digested with the same enzymes. […] This same 1-320 PTP-1B sequence (Seq. ID No. 1) was then cloned into the expression vector pFLAG-2, where FLAG is the octa-peptide […] This was done by releasing the PTP-1B sequence from the pGEX-2T vector by Nco I/Eco RI digest, filling in the ends of this fragment by Klenow and blunt-end ligating into the blunted Eco RI site of pFLAG2. Site-directed mutagenesis was performed on pFLAG2-PTP-1B plasmid using the Chameleon (Stratagene) double-stranded mutagenesis kit from Stratagene, to replaced the active-site Cys-215 with serine. The mutagenesis was carried out essentially as described by the manufacturer and mutants identifed by DNA sequencing. […]

[7] = biological target: T3, GST-PTP1B, non-mutated (Cys215): human recombinant PTP1B amino acids 1-320 fused to GST enzyme (glutathione … (human)); assay: SPA competition binding assay against tritiated BzN-EJJ-CONH2, GST-PTP1B non-mutated (Cys215)
T3 chain: T1 sequence (P18031 1-320)
Method: 1. 110 μl of assay buffer. 2. […] 3. 10 μl. of testing compound in DMSO at 10 different concentrations in serial dilution (final DMSO, about 5% v/v) in duplicate @ 25° C. 4. 10 μl. of 3.75 μg/ml purified human recombinant GST-PTP1B in enzyme dilution buffer. 5. The plate is shaken for 2 minutes. 6. 10 μl. of 0.3 μg/ml anti-glutathione S-transferase (anti-GST) rabbit IgG (Molecular Probes) diluted in antibody dilution buffer @ 25° C. 7. The plate is shaken for 2 minutes. 8. 50 μl. of protein A-PVT SPA beads (Amersham) @ 25° C. 9. The plate is shaken for 5 minutes. The binding signal is quantified on a Microbeta 96-well plate counter. 10. The non-specific signal is defined as the enzyme-ligand binding in the absence of anti-GST antibody. 11. 100% binding activity is defined as the enzyme-ligand binding in the presence of anti-GST antibody, but in the absence of the testing ligands with the non-specific binding subtracted. 12. Percentage of inhibition is calculated accordingly.

[8] = biological target: PTP1B tyrosine phosphatase (construct not stated) (human)
[9] = read-out: % inhibition, Mutated

Question: Which inhibition at 2 µM [1] does the source give for `COc1cc(OC)c(OC)cc1CCN=CCc1ncc[nH]1` [Amine] here?
Answer: 67%

Question: And the inhibition at 2 µM [2, 9]?
Answer: 10%

Question: Which results are given for `OO` [Hydrogen peroxide]?
Answer: inhibition at 83 µM [1]: 90%; inhibition at 83 µM [2, 9]: 0%

Question: For DADE(F2PMP)L hexapeptide, which IC50 [3] is on record?
Answer: 100 nM

Question: What about the IC50 [4] of the same molecule?
Answer: 400 nM

Question: What does the source list for `NC(=O)[C@H](Cc1ccc(C(F)(F)P(=O)(O)O)cc1)NC(=O)[C@H](Cc1ccc(C(F)(F)P(=O)(O)O)cc1)NC(=O)[C@H](CCC(=O)O)NC(=O)c1ccccc1` [BzN-EJJ-CONH2, N-Benzoyl-L-glutamyl-[4-phosphono(difluoromethyl)]-L-phenylalanyl-[4-phosphono(difluoromethyl)]-L-phenylalanineamide] (Bz-Glu-[F2Pmp]-[F2Pmp]-NH2)?
Answer: active inhibitor of PTP1B [5]: 5 nM; binding of substrate analog to mutated enzyme ([2]; mutated enzyme, truncated, amino acids 1-320): high affinity

B1: GST-PTP-1B fusion protein: PTP-1B amino acids 1-320 fused to GST, expressed in E. Coli (protein)
chain: T1 sequence (P18031 1-320)
Question: For B1, which phosphatase activity [6] is on record?
Answer: active protein tyrosine phosphatase activity

B2: FLAG-PTP-1B Cys215Ser mutant: FLAG-tagged PTP-1B with active-site Cys-215 replaced with serine (Seq. ID No. 7) (protein, UniProt P18031 1-435, looked up, variant C215S)
Tyrosine-protein phosphatase …: MEMEKEFEQIDKSGSWAAIYQDIRHEASDFPCRVAKLPKNKNRNRYRDVSPFDHSRIKLHQEDNDYINASLIKMEEAQRSYILTQGPLPNTCGHFWEMVWEQKSRGVVMLNRVMEKGSLKCAQYWPQKEEKEMIFEDTNLKLTLISEDIKSYYTVRQLELENLTTQETREILHFHYTTWPDFGVPESPASFLNFLFKVRESGSLSPEHGPVVVHSSAGIGRSGTFCLADTCLLLMDKRKDPSSVDIKKVLLEMRKFRMGLIQTADQLRFSYLAVIEGAKFIMGDSSVQDQWKELSHEDLEPPPEHIPPPPRPPKRILEPHNGKCREFFPNHQWVKEETQEDKDCPIKEEKGSPLNAAPYGIESMSQDTEVRSRVVGGSLRGAQAASPAKGEPSLPEKDEDHALSYWKPFLVNMCVATVLTAGAYLCYRFLFNSNT
modifications: FLAG tag
Question: With B2 as the molecule, how does the phosphatase activity [6] read?
Answer: not to have any phosphatase activity

Question: What does the source list for Bz-Glu-[F2Pmp]-[F2Pmp]-NH2?
Answer: IC50 [7]: 14 nM; IC50 [3]: 8 nM; inhibitor of PTP1B [8]: 5 nM
